Laboratory results reported in patent publication US20240043528A1, “NANOBODY-OGA FUSIONS AND USES THEREOF” (President and Fellows of Harvard College, priority 2020, published 2024).
Entries after “also recorded” stand apart in the source; their conditions may differ.

What was measured:
GFP-Nup62 = assay: Deglycosylation of GFP-Nup62 co-expressed with OGA constructs (anti-EPEA enrichment, RL2 immunoblot); assay type: cell-based, human; details: for deglycosidase activity on GFP-Nup62 of N fragment: N fragment paired with C1 (aa 414-916)
Method: HEK 293T cells were cultured in Dulbecco's Modified Eagle Medium (DMEM, Cat #11995073) supplemented with penicillin (50 μg/mL) and streptomycin (50 μg/mL) along with 10% (v/v) FBS. Transfections of all plasmids in this study were performed using TransIT-PRO® (Mirus Bio, Cat #MIR 5740) according to the manufacturer's instructions.
Glycoproteins Nup62, Sp1, JunB, c-Jun were subcloned into pcDNA3.1 vector with a GFP and a Flag-tag or a BC2 tag in the N-terminus and an EPEA tag in the C terminus respectively, unless otherwise noted. For all split OGA constructs with or without the fusion of nanobody GFP, N fragments were tagged with myc tag and C fragments were tagged with HA tag respectively. Human SP1 cDNA ORF plasmid (Cat #HG12024-G), human c-Fos cDNA ORF plasmid, and human OGT cDNA ORF cloned with a C-terminal His tag (Cat #HG11279-M) were purchased from Sino Biological. For subcloning, PCR fragments were amplified using Q5 High-Fidelity 2× Master Mix (New England BioLabs, Cat #M0492S). The vectors were double-digested and ligated to gel-purified PCR products by T4 ligation using T4 DNA ligase (New England BioLabs, Cat #M0202S) or by Gibson assembly using Gibson Assembly Master mix (New England BioLabs, Cat #E2611L). c-Fos was subcloned into a pcDNA3.1 vector with a 14-residue Ubc tag (amino acids: QADQEAKELARQIA (SEQ ID NO: 11)), Flag tag, and EPEA tag at the C terminus. All nanobody DNA fragments were synthesized by IDT.
After 36-48 h of transfection, cells were harvested and washed with PBS once. Cells were lysed with M-PER lysis buffer containing 1× protease inhibitor cocktail and 10 μM Thiamet-G unless otherwise noted. Protein concentrations were determined by the BCA assay kit (G-Biosciences, 786) on a multi-mode microplate reader FilterMax F3 (Molecular Devices LLC, Sunnyvale, CA).
For immunoprecipitation of proteins with the C-terminal EPEA tag, cell lysates with equal amounts of protein were diluted with PBS and incubated with C-tag affinity matrix (Thermo Scientific) for 1 h at room temperature, with end-to-end rotation, following the manufacturer's instructions. After washing three times with PBS buffer, the enriched proteins were eluted with SDS sample buffer and subjected to SDS-PAGE.
For immunoblotting analysis, proteins were transferred to a nitrocellulose membrane using iBlot (Thermo Scientific). Membranes were blocked with Tris buffered saline containing 0.1% Tween-20 and 5% BSA and incubated with the primary antibodies (1:1000 dilution) and the secondary antibodies (1:10,000 dilution) sequentially. Immunoblot images were captured by Azure Imager C600. Analysis of immunoblots was conducted with Fiji ImageJ. All IR fluorescence western blot images are converted into grayscale images by Fiji ImageJ. The unsaturated exposure of immunoblot images was used for quantification with the appropriate loading controls as standards. Statistical analysis of the data was performed with Prism 8, using data from at least three independent experiments.

HA-OGA(414-916), O60502 = target: T1, HA-OGA(414-916), O60502
T1 chain: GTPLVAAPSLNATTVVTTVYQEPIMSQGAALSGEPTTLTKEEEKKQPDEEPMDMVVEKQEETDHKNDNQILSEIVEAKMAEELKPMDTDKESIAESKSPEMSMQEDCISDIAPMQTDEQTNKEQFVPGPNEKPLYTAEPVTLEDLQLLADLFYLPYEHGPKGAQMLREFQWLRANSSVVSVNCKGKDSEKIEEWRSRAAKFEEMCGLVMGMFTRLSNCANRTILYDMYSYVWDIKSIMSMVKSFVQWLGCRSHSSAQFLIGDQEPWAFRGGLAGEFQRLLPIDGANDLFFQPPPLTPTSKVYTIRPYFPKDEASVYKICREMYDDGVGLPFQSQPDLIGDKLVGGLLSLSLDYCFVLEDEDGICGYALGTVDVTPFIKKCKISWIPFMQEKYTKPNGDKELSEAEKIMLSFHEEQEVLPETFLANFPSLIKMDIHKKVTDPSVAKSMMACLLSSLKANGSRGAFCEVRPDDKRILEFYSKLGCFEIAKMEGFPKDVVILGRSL

myc-OGA(1-400) = target: T2, myc-OGA(1-400) (human, UniProt O60502 1-400); assay: co-immunoprecipitation (anti-c-Myc / anti-HA magnetic beads) from HEK 293T lysates, immunoblot
T2 construct: also called N2; N fragment
T2 sequence: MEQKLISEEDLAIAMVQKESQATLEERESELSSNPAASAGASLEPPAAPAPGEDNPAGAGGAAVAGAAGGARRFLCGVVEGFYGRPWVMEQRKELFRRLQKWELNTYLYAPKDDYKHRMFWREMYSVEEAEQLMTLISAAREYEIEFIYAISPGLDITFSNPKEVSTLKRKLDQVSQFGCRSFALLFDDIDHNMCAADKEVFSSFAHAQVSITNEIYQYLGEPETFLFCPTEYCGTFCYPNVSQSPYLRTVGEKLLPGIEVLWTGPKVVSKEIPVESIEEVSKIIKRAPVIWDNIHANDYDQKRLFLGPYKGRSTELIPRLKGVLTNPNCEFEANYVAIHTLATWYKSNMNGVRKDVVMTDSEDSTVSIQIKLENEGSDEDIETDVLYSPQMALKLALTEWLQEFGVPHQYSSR
Method: The asterisk indicates IgG heavy chain from anti-c-Myc magnetic beads. […] In FIG. 9A and FIG. 9C, activities of fragments alone or pairs with/without nGFP were evaluated on GFP-Nup62, which was enriched by beads against EPEA tag and blotted with RL2 antibody to reveal O-GlcNAc modification level. D174N is a catalytically impaired mutation on OGA. Anti-myc and anti-HA blots detect expression of full-length (fl-OGA) or N-terminal fragment, and C-terminal fragment, respectively. WCL, whole cell lysates. The data in FIGS. 9A-9C are representative of at least two biological replicates.
For immunoprecipitation of proteins with anti-HA (Pierce, 88836) or anti-c-Myc (Pierce, 88842) magnetic beads, cell lysates with equal amounts of protein were diluted with 1×TBS-T buffer (25 mM Tris HCl pH 7.4, 150 mM NaCl, 0.05% Tween-20) and incubated with pre-washed magnetic beads at room temperature for 30 min with mixing, following the manufacturer's instructions. Anti-HA magnetic beads were washed three times with TBS-T buffer and once with ultrapure water. Anti-c-Myc magnetic beads were washed three times with 5×TBS-T buffer and once with ultrapure water. The enriched proteins were eluted with SDS sample buffer and subjected to SDS-PAGE.

B1: N2: myc-OGA(1-400) N fragment (SEQ ID NO: 4) (protein)
chain: T2 sequence
modifications: myc tag
How did the “deglycosidase activity on GFP-Nup62 of N fragment” value (GFP-Nup62; HEK 293T cells) turn out when B1 was run?
The value was “possessed deglycosylation capability when paired with C1”.

B2: OGA(cat): catalytic domain of OGA alone, residues 1-366, myc tag (protein, UniProt O60502 1-366, looked up, fragment)
chain: MVQKESQATLEERESELSSNPAASAGASLEPPAAPAPGEDNPAGAGGAAVAGAAGGARRFLCGVVEGFYGRPWVMEQRKELFRRLQKWELNTYLYAPKDDYKHRMFWREMYSVEEAEQLMTLISAAREYEIEFIYAISPGLDITFSNPKEVSTLKRKLDQVSQFGCRSFALLFDDIDHNMCAADKEVFSSFAHAQVSITNEIYQYLGEPETFLFCPTEYCGTFCYPNVSQSPYLRTVGEKLLPGIEVLWTGPKVVSKEIPVESIEEVSKIIKRAPVIWDNIHANDYDQKRLFLGPYKGRSTELIPRLKGVLTNPNCEFEANYVAIHTLATWYKSNMNGVRKDVVMTDSEDSTVSIQIKLENEGSDE
modifications: catalytic domain myc tag
notes: catalytic domain of OGA alone, residues 1-366, myc tag
How did the “deglycosidase activity on GFP-Nup62 of N fragment” value (GFP-Nup62; HEK 293T cells) turn out when B2 was run?
The value was “no activity was seen on GFP-Nup62”.

And the “deglycosidase activity / O-GlcNAc modification level on GFP-Nup62” value (GFP-Nup62; co-expressed in HEK 293T cells)?
The value was “inactive”.

What about the “deglycosidase activity on GFP-Nup62 after fusion of nGFP” value (GFP-Nup62; nGFP fused to a fragment, HEK 293T cells, listed as N3) of the same molecule?
Its value is “could not be recovered; also recorded: unable to reconstitute OGA's activity with any C-fragments shown in this study even in the presence of nGFP”.

B3: myc-OGA(1-413) (protein)
chain: MVQKESQATLEERESELSSNPAASAGASLEPPAAPAPGEDNPAGAGGAAVAGAAGGARRFLCGVVEGFYGRPWVMEQRKELFRRLQKWELNTYLYAPKDDYKHRMFWREMYSVEEAEQLMTLISAAREYEIEFIYAISPGLDITFSNPKEVSTLKRKLDQVSQFGCRSFALLFDDIDHNMCAADKEVFSSFAHAQVSITNEIYQYLGEPETFLFCPTEYCGTFCYPNVSQSPYLRTVGEKLLPGIEVLWTGPKVVSKEIPVESIEEVSKIIKRAPVIWDNIHANDYDQKRLFLGPYKGRSTELIPRLKGVLTNPNCEFEANYVAIHTLATWYKSNMNGVRKDVVMTDSEDSTVSIQIKLENEGSDEDIETDVLYSPQMALKLALTEWLQEFGVPHQYSSRQVAHSGAKASVVD
Which “deglycosidase activity on GFP-Nup62 (O-GlcNAc RL2 immunoblot)” value (HA-OGA(414-916), O60502) does the source give for B3 here?
Its value is “The N- and C-terminal fragments can associate to reconstitute OGA enzymatic activity when co-expressed simultaneously in living cells”.

B4: HA-OGA(554-706) (enzyme, human, UniProt O60502 554-706, looked up)
chain: TLEDLQLLADLFYLPYEHGPKGAQMLREFQWLRANSSVVSVNCKGKDSEKIEEWRSRAAKFEEMCGLVMGMFTRLSNCANRTILYDMYSYVWDIKSIMSMVKSFVQWLGCRSHSSAQFLIGDQEPWAFRGGLAGEFQRLLPIDGANDLFFQPP
notes: range 554-706; the legend prints C4; also called C4; not shown: N-terminal HA tag
Does B4 bind (myc-OGA(1-400))?
Result: no binding
